Source: patent publication US20110039770A1 (PHARMAGAP, published 2011)
Like-named read-outs stand apart in the source and are kept apart here.

Legend:
[1] = target: T1, PKC-βI, purified isoform (UniProt P05771-1 1-671); test: purified isoform competition ELISA, summary grade
T1 construct: also called PKC-beta I; beta 1

[2] = target: T2, PKC-ι in extracts of human cell lines (human, UniProt P41743 2-596); test: Western-blot competition, cell extracts: PRE at 10X/20X the anti-PKC iota primary antibody concentration competes with that antibody; band densitometry (lower band = PRE bound)
T2 construct: Denatured on the Western blot membrane; also called PKC-iota (cell extract)
T2 sequence (looked up): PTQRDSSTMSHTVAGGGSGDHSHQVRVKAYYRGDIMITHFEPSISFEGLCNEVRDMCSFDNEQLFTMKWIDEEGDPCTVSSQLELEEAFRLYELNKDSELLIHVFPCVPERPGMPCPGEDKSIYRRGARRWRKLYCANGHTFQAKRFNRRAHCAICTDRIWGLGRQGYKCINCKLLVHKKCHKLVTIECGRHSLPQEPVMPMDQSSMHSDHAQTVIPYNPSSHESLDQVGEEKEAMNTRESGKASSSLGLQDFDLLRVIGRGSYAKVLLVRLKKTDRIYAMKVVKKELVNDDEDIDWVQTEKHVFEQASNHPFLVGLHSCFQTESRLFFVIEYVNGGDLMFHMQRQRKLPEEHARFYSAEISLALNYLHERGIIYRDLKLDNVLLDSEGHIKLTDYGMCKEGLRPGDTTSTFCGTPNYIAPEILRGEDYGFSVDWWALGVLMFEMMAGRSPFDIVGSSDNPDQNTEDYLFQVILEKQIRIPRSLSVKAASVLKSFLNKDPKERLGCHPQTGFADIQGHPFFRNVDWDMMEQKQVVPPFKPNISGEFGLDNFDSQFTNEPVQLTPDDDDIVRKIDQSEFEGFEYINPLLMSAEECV

[3] = target: T3, PKC-ε, purified isoform (UniProt Q02156 1-737); test: competition ELISA on coated purified PKC-ε vs anti-PKC ε antibody; PRE 100 µM
T3 construct: also called PKC-epsilon; epsilon
T3 sequence (looked up): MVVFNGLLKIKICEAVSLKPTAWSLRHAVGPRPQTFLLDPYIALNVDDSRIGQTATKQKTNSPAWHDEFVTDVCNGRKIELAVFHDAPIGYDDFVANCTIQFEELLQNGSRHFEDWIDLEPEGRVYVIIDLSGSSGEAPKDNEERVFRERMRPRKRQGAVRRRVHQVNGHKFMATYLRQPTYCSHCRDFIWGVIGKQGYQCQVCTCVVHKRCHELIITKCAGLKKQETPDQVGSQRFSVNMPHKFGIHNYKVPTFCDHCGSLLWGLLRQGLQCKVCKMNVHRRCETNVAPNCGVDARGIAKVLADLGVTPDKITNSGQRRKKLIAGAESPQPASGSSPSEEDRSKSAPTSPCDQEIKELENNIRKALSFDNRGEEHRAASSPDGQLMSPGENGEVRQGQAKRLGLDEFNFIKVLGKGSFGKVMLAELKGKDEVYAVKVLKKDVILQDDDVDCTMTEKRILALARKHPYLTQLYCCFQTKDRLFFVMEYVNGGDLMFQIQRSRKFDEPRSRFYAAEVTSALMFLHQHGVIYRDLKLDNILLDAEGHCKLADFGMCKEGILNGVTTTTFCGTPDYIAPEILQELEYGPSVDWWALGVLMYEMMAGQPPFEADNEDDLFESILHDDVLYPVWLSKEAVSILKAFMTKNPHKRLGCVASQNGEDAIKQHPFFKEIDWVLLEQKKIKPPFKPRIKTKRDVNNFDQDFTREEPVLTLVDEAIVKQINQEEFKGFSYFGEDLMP

[4] = target: T3, PKC-ε, purified isoform; test: competition ELISA on coated purified PKC-ε vs anti-PKC ε antibody; PRE 200 µM
[5] = target: T3, PKC-ε, purified isoform; test: competition ELISA on coated purified PKC-ε vs anti-PKC ε antibody; PRE 50 µM
[6] = target: T4, PKC-ζ in extracts of human cell lines (human, UniProt Q05513 1-592); test: Western-blot competition, cell extracts: PRE at 10X/20X the anti-PKC zeta primary antibody concentration competes with that antibody; band densitometry (lower band = PRE bound)
T4 construct: Denatured on the Western blot membrane; also called PKC-zeta (cell extract)
T4 sequence (looked up): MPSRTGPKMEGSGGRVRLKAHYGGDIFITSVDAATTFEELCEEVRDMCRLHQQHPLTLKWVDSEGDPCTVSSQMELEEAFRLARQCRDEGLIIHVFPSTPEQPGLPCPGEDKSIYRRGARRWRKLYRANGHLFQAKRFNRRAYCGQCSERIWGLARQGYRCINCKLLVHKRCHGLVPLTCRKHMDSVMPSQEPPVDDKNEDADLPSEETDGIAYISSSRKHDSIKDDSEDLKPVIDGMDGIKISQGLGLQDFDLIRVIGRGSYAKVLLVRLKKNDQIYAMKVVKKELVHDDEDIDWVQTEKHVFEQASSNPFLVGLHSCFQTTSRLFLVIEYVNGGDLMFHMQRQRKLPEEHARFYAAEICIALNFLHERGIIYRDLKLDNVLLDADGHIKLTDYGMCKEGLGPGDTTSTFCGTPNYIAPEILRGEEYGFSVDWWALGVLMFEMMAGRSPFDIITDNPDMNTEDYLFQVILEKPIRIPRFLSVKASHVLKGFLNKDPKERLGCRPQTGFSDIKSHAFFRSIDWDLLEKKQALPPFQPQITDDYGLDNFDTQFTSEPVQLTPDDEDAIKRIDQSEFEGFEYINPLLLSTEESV

[7] = target: T2, PKC-ι in extracts of human cell lines; test: Western-blot competition, cell extracts: PRE at 10X/20X the anti-PKC iota primary antibody concentration competes with that antibody; band densitometry (lower band = PRE bound); remark: listed apart in the source
[8] = target: T2, PKC-ι in extracts of human cell lines; test: as above; remark: listed apart in the source
[9] = target: T5, PKC-βI in extracts of human cell lines (human, UniProt P05771-1 2-671); test: Western-blot competition, cell extracts: PRE at 10X/20X the anti-PKC beta I primary antibody concentration competes with that antibody; band densitometry (lower band = PRE bound)
T5 construct: Denatured on the Western blot membrane; beta I splice form; also called PKC-beta I (cell extract)
T5 sequence (P05771 2-671 limits assumed): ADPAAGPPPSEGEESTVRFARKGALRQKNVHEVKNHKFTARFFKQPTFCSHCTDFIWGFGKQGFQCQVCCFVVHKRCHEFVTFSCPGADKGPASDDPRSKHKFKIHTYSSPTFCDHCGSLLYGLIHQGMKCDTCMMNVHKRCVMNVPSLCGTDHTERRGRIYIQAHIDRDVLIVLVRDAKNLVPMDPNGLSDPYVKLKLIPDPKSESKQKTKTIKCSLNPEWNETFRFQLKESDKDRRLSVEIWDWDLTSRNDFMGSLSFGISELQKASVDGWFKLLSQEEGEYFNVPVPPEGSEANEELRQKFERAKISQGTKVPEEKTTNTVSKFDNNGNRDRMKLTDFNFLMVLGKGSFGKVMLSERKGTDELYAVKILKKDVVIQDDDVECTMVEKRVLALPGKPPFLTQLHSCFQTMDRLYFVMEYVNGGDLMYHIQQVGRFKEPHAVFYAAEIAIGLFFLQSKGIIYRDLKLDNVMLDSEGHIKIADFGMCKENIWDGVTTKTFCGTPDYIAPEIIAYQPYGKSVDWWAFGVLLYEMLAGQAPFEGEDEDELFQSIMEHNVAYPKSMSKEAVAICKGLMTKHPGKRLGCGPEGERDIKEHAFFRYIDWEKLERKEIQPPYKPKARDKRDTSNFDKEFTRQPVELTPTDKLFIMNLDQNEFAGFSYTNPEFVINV

[10] = target: T4, PKC-ζ in extracts of human cell lines; test: Western-blot competition, cell extracts: PRE at 10X/20X the anti-PKC zeta primary antibody concentration competes with that antibody; band densitometry (lower band = PRE bound); remark: listed apart in the source
[11] = target: T6, PKC-ε in extracts of human cell lines (human, UniProt Q02156 1-737); test: Western-blot competition, cell extracts: PRE at 10X/20X the anti-PKC epsilon primary antibody concentration competes with that antibody; band densitometry (lower band = PRE bound)
T6 construct: Denatured on the Western blot membrane; also called PKC-epsilon (cell extract)
T6 sequence (looked up): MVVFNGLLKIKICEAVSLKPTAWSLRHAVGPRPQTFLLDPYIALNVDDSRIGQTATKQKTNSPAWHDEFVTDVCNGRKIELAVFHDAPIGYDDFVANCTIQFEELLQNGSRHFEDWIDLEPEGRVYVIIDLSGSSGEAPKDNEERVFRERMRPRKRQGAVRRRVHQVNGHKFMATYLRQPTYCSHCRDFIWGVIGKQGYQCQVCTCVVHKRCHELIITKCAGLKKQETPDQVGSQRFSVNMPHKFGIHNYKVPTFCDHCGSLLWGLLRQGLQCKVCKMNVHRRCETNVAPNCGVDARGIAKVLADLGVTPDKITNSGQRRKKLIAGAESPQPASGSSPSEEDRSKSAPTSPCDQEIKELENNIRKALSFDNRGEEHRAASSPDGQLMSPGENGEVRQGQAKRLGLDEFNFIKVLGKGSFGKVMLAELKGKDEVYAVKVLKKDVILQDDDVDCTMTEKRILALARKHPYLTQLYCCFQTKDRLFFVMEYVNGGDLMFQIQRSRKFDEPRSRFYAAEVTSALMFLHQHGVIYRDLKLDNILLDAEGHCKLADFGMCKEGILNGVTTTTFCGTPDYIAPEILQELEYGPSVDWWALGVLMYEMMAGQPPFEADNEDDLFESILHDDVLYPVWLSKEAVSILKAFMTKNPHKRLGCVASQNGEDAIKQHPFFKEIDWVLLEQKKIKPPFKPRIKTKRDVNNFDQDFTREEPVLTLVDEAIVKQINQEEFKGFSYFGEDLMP

[12] = target: T3, PKC-ε, purified isoform; test: purified isoform competition ELISA, summary grade
[13] = target: T7, PKC-βII, purified isoform (UniProt P05771-2 1-673); test: purified isoform competition ELISA, summary grade
T7 construct: also called PKC-beta II; beta 2
T7 sequence (P05771 other isoform, or with tags, fused parts or gaps limits assumed): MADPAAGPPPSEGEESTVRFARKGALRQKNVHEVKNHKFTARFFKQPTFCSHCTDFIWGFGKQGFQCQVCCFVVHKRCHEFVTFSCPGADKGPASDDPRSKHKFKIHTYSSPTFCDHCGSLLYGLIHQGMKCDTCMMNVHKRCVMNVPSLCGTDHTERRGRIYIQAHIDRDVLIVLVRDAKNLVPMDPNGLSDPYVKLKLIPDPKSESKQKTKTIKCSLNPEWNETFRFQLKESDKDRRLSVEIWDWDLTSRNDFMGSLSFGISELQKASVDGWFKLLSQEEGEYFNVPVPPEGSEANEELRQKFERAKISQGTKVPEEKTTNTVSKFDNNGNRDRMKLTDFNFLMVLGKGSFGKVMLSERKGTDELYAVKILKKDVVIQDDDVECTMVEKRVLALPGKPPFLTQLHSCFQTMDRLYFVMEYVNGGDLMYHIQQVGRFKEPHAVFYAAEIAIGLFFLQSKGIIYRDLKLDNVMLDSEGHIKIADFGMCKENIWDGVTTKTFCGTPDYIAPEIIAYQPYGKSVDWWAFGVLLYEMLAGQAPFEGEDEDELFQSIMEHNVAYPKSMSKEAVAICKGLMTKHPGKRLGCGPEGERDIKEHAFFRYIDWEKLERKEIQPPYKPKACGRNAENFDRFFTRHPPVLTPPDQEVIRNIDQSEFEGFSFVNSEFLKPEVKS

T1 sequence (P05771 whole entry, canonical isoform): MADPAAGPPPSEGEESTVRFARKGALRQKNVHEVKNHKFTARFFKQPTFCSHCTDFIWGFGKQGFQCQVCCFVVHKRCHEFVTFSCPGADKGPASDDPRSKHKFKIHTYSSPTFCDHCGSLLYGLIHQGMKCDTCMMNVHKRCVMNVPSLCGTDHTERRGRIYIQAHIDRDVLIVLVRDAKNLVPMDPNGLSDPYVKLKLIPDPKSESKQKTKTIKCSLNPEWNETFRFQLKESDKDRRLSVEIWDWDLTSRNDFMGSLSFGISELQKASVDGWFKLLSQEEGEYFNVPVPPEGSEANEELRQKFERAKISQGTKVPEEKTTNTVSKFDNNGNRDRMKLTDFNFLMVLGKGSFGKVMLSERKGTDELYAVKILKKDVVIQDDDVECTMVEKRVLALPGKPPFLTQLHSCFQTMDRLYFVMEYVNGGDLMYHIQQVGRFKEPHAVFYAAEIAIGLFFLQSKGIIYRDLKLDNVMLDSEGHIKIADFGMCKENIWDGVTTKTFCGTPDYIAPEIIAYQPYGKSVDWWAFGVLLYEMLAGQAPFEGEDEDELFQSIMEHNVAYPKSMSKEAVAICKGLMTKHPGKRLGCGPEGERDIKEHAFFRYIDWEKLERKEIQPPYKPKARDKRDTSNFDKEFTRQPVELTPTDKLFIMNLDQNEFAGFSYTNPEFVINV

Binder	binding result [1]	relative binding capacity [3] [%]	relative binding capacity [4] [%]	relative binding capacity [5] [%]	further results
ILEDKGGDAQNLIGISI (also called peptide recognition element 8) [PRE 8]	no binding	–	–	–	–
Ac-AKGIQEVKGGDAQNLIGISI-NH2 (also called peptide recognition element 3) [PRE 3]	–	31.5	31	34	binding result [2]: binds
Ac-AKGIQEVKGGKDAQNLIGISI-NH2 (also called peptide recognition element 5) [PRE 5]	–	–	–	–	binding result [6]: binds
Ac-ISIGILQNADK-NH2 (also called peptide recognition element 7) [PRE 7]	–	14	3.78	8.04	binding result [7]: no binding (tested: 20X the primary antibody concentration)
Ac-RDAQNLI-NH2 (Ac-RDAQNLI-NH2; also called peptide recognition element 13) [PRE 13]	no binding	0	0.85	0	binding result [8]: no binding (tested: 20X the primary antibody concentration); binding result [9]: no binding (tested: 20X the primary antibody concentration); binding result [10]: no binding (tested: 20X the primary antibody concentration); binding result [11]: no binding (tested: 20X the primary antibody concentration); binding result [12]: no binding; binding result [13]: no binding
